Measured values from patent publication EP4803150A2 (Lyvgen Biopharma Holdings Limited, dated 2026).

How the values were obtained:
CD137 = molecular target: T1, CD137 (human, UniProt Q07011 24-186); test: FCM or ELISA, graded
T1 construct: Whole on GS-H2-huCD137 reporter cells in the reporter assays; also called 4-1BB

CD3 = molecular target: T2, CD3 (human); test: CD3 binding as in Example 2 (ELISA or FCM)
T2 chain: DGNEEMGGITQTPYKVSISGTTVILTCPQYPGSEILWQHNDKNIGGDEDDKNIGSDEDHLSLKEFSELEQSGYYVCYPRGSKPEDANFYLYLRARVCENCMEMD

Binder | binding result (CD137) | EC50 (CD3)
Ly2600 (multi-specific antibody, B7H3/CD3/CD137) chain 1: QVQLVQSGAEVKKPGASVKVSCKASGYTFTSYVMHWVRQKPGQGLEWIGYINPYNEGTESTDKFKGRATMTSDKSTSTVYMELSSLRSEDTAVYYCASIYYGYEGTYFGVWGQGTLVTVSSASTKGPSVFPLAPSSKSTSGGTAALGCLVKDYFPEPVTVSWNSGALTSGVHTFPAVLQSSGLYSLSSVVTVPSSSLGTQTYICNVNHKPSNTKVDKKVEPKSCGGGGSGGGGSGGGGSGGGGSEVQLVESGGGLVQPGGSLRLSCAASGFTFSTYAMNWVRQAPGKGLEWVGRIRSKYNNYATYYADSVKGRFTISRDDSKNSLYLQMNSLKTEDTAVYYCVRHGNFGNSYVSWFAYWGQGTLVTVSSGGGGSDKTHTCPPCPAPELLGPSVFLFPPKPKDTLMISRTPEVTCVVVDVSHEDPEVKFNWYVDGVEVHNAKTKPREEQYNSTYRVVSVLTVLHQDWLNGKEYKCKVSNKALGAPIEKTISKAKGQPREPQVYTLPPSREEMTKNQVSLWCLVKGFYPSDIAVEWESNGQPENNYKTTPPVLDSDGSFFLYSKLTVDKSRWQQGNVFSCSVMHEALHNHYTQKSLSLSPGGGGGSGGGGSGGGGSGGGGSQVQLVQSGAEVKKPGASVKVSCKASGYTFAGFEMHWVRQAPGQGLEWMGAIDPKTGGTDYNQKFKDRVTMTRDTSISTAYMELSRLRSDDTAVYYCARDLGYFDVWGQGTLVTVSS chain 2: QVQLVQSGAEVKKPGASVKVSCKASGYTFTSYVMHWVRQKPGQGLEWIGYINPYNEGTESTDKFKGRATMTSDKSTSTVYMELSSLRSEDTAVYYCASIYYGYEGTYFGVWGQGTLVTVSSASTKGPSVFPLAPSSKSTSGGTAALGCLVKDYFPEPVTVSWNSGALTSGVHTFPAVLQSSGLYSLSSVVTVPSSSLGTQTYICNVNHKPSNTKVDKKVEPKSCGGGGSGGGGSGGGGSGGGGSQAVVTQEPSLTVSPGGTVTLTCRSSTGAVTTSNYANWVQQKPGQAPRGLIGGTNKRAPWTPARFSGSLLGGKAALTITGAQAEDEADYYCALWYSNLWVFGGGTKLTVLGGGGSDKTHTCPPCPAPELLGPSVFLFPPKPKDTLMISRTPEVTCVVVDVSHEDPEVKFNWYVDGVEVHNAKTKPREEQYNSTYRVVSVLTVLHQDWLNGKEYKCKVSNKALGAPIEKTISKAKGQPREPQVYTLPPSREEMTKNQVSLSCAVKGFYPSDIAVEWESNGQPENNYKTTPPVLDSDGSFFLVSKLTVDKSRWQQGNVFSCSVMHEALHNHYTQKSLSLSPGGGGGSGGGGSGGGGSGGGGSDIQMTQSPSSLSASVGDRVTITCRASQDIRSNLNWYQQKPGGAVKLLIYYTSRLHSGVPSRFSGSGSGTDYTLTISSLQPEDFATYFCQQSEKLPRTFGGGTKVEIR chain 3: EIVLTQSPATLSLSPGERATLSCRASSSVSYMHWYQQKPGQAPRPWIYATSNLASGIPARFSGSRSGTDYTLTISSLEPEDFAVYYCQQWSSNTLTFGGGTKVEIKRTVAAPSVFIFPPSDEQLKSGTASVVCLLNNFYPREAKVQWKVDNALQSGNSQESVTEQDSKDSTYSLSSTLTLSKADYEKHKVYACEVTHQGLSSPVTKSFNRGEC | binds | –
Ly2278 (bispecific antibody, CD19/CD3) chain 1: QVQLQQSGAELVRPGSSVKISCKASGYAFSSYWMNWVKQRPGQGLEWIGQIWPGDGDTNYNGKFKGKATLTADESSSTAYMQLSSLASEDSAVYFCARRETTTVGRYYYAMDYWGQGTTVTVSSASTKGPSVFPLAPSSKSTSGGTAALGCLVKDYFPEPVTVSWNSGALTSGVHTFPAVLQSSGLYSLSSVVTVPSSSLGTQTYICNVNHKPSNTKVDKKVEPKSCGGGGSGGGGSGGGGSGGGGSEVQLVESGGGLVQPGGSLRLSCAASGFTFSTYAMNWVRQAPGKGLEWVGRIRSKYNNYATYYADSVKGRFTISRDDSKNSLYLQMNSLKTEDTAVYYCVRHGNFGNSYVSWFAYWGQGTLVTVSSGGGGSDKTHTCPPCPAPEAAGPSVFLFPPKPKDTLMISRTPEVTCVVVDVSHEDPEVKFNWYVDGVEVHNAKTKPREEQYNSTYRVVSVLTVLHQDWLNGKEYKCKVSNKALPAPIEKTISKAKGQPREPQVYTLPPSREEMTKNQVSLWCLVKGFYPSDIAVEWESNGQPENNYKTTPPVLDSDGSFFLYSKLTVDKSRWQQGNVFSCSVMHEALHNHYTQKSLSLSPG chain 2: QVQLQQSGAELVRPGSSVKISCKASGYAFSSYWMNWVKQRPGQGLEWIGQIWPGDGDTNYNGKFKGKATLTADESSSTAYMQLSSLASEDSAVYFCARRETTTVGRYYYAMDYWGQGTTVTVSSASTKGPSVFPLAPSSKSTSGGTAALGCLVKDYFPEPVTVSWNSGALTSGVHTFPAVLQSSGLYSLSSVVTVPSSSLGTQTYICNVNHKPSNTKVDKKVEPKSCGGGGSGGGGSGGGGSGGGGSQAVVTQEPSLTVSPGGTVTLTCRSSTGAVTTSNYANWVQQKPGQAPRGLIGGTNKRAPWTPARFSGSLLGGKAALTITGAQAEDEADYYCALWYSNLWVFGGGTKLTVLGGGGSDKTHTCPPCPAPEAAGPSVFLFPPKPKDTLMISRTPEVTCVVVDVSHEDPEVKFNWYVDGVEVHNAKTKPREEQYNSTYRVVSVLTVLHQDWLNGKEYKCKVSNKALPAPIEKTISKAKGQPREPQVYTLPPSREEMTKNQVSLSCAVKGFYPSDIAVEWESNGQPENNYKTTPPVLDSDGSFFLVSKLTVDKSRWQQGNVFSCSVMHEALHNRFTQKSLSLSPG chain 3: not shown | – | 1.46 µg/mL
Ly1966 (multi-specific antibody, CD19/CD3/CD137) chain 1: QVQLQQSGAELVRPGSSVKISCKASGYAFSSYWMNWVKQRPGQGLEWIGQIWPGDGDTNYNGKFKGKATLTADESSSTAYMQLSSLASEDSAVYFCARRETTTVGRYYYAMDYWGQGTTVTVSSASTKGPSVFPLAPSSKSTSGGTAALGCLVKDYFPEPVTVSWNSGALTSGVHTFPAVLQSSGLYSLSSVVTVPSSSLGTQTYICNVNHKPSNTKVDKKVEPKSCGGGGSGGGGSGGGGSGGGGSEVQLVESGGGLVQPGGSLRLSCAASGFTFSTYAMNWVRQAPGKGLEWVGRIRSKYNNYATYYADSVKGRFTISRDDSKNSLYLQMNSLKTEDTAVYYCVRHGNFGNSYVSWFAYWGQGTLVTVSSGGGGSDKTHTCPPCPAPEAAGPSVFLFPPKPKDTLMISRTPEVTCVVVDVSHEDPEVKFNWYVDGVEVHNAKTKPREEQYNSTYRVVSVLTVLHQDWLNGKEYKCKVSNKALPAPIEKTISKAKGQPREPQVYTLPPSREEMTKNQVSLWCLVKGFYPSDIAVEWESNGQPENNYKTTPPVLDSDGSFFLYSKLTVDKSRWQQGNVFSCSVMHEALHNHYTQKSLSLSPGGGGGSGGGGSGGGGSGGGGSQVQLVQSGAEVKKPGASVKVSCKASGYTFAGFEMHWVRQAPGQGLEWMGAIDPKTGGTDYNQKFKDRVTMTRDTSISTAYMELSRLRSDDTAVYYCARDLGYFDVWGQGTLVTVSS chain 2: QVQLQQSGAELVRPGSSVKISCKASGYAFSSYWMNWVKQRPGQGLEWIGQIWPGDGDTNYNGKFKGKATLTADESSSTAYMQLSSLASEDSAVYFCARRETTTVGRYYYAMDYWGQGTTVTVSSASTKGPSVFPLAPSSKSTSGGTAALGCLVKDYFPEPVTVSWNSGALTSGVHTFPAVLQSSGLYSLSSVVTVPSSSLGTQTYICNVNHKPSNTKVDKKVEPKSCGGGGSGGGGSGGGGSGGGGSQAVVTQEPSLTVSPGGTVTLTCRSSTGAVTTSNYANWVQQKPGQAPRGLIGGTNKRAPWTPARFSGSLLGGKAALTITGAQAEDEADYYCALWYSNLWVFGGGTKLTVLGGGGSDKTHTCPPCPAPEAAGPSVFLFPPKPKDTLMISRTPEVTCVVVDVSHEDPEVKFNWYVDGVEVHNAKTKPREEQYNSTYRVVSVLTVLHQDWLNGKEYKCKVSNKALPAPIEKTISKAKGQPREPQVYTLPPSREEMTKNQVSLSCAVKGFYPSDIAVEWESNGQPENNYKTTPPVLDSDGSFFLVSKLTVDKSRWQQGNVFSCSVMHEALHNRFTQKSLSLSPGGGGGSGGGGSGGGGSGGGGSDIQMTQSPSSLSASVGDRVTITCRASQDIRSNLNWYQQKPGGAVKLLIYYTSRLHSGVPSRFSGSGSGTDYTLTISSLQPEDFATYFCQQSEKLPRTFGGGTKVEIR chain 3: not shown | – | 0.348 µg/mL
Ly1967 (multi-specific antibody, CD19/CD3/CD137) chain 1: QVQLQQSGAELVRPGSSVKISCKASGYAFSSYWMNWVKQRPGQGLEWIGQIWPGDGDTNYNGKFKGKATLTADESSSTAYMQLSSLASEDSAVYFCARRETTTVGRYYYAMDYWGQGTTVTVSSASTKGPSVFPLAPSSKSTSGGTAALGCLVKDYFPEPVTVSWNSGALTSGVHTFPAVLQSSGLYSLSSVVTVPSSSLGTQTYICNVNHKPSNTKVDKKVEPKSCGGGGSGGGGSGGGGSGGGGSEVQLVESGGGLVQPGGSLRLSCAASGFTFSTYAMNWVRQAPGKGLEWVGRIRSKYNNYATYYADSVKGRFTISRDDSKNSLYLQMNSLKTEDTAVYYCVRHGNFGNSYVSWFAYWGQGTLVTVSSGGGGSDKTHTCPPCPAPEAAGPSVFLFPPKPKDTLMISRTPEVTCVVVDVSHEDPEVKFNWYVDGVEVHNAKTKPREEQYNSTYRVVSVLTVLHQDWLNGKEYKCKVSNKALPAPIEKTISKAKGQPREPQVYTLPPSREEMTKNQVSLWCLVKGFYPSDIAVEWESNGQPENNYKTTPPVLDSDGSFFLYSKLTVDKSRWQQGNVFSCSVMHEALHNHYTQKSLSLSPGGGGGSGGGGSGGGGSGGGGSQVQLVQSGAEVKKPGASVKVSCKASGYTFAGFEMHWVRQAPGQGLEWMGAIDPKTGGTDYNQKFKDRVTMTRDTSISTAYMELSRLRSDDTAVYYCARDLGYFDVWGQGTLVTVSS chain 2: QVQLQQSGAELVRPGSSVKISCKASGYAFSSYWMNWVKQRPGQGLEWIGQIWPGDGDTNYNGKFKGKATLTADESSSTAYMQLSSLASEDSAVYFCARRETTTVGRYYYAMDYWGQGTTVTVSSASTKGPSVFPLAPSSKSTSGGTAALGCLVKDYFPEPVTVSWNSGALTSGVHTFPAVLQSSGLYSLSSVVTVPSSSLGTQTYICNVNHKPSNTKVDKKVEPKSCGGGGSGGGGSGGGGSGGGGSQAVVTQEPSLTVSPGGTVTLTCRSSTGAVTTSNYANWVQQKPGQAPRGLIGGTNKRAPWTPARFSGSLLGGKAALTITGAQAEDEADYYCALWYSNLWVFGGGTKLTVLGGGGSDKTHTCPPCPAPEAAGPSVFLFPPKPKDTLMISRTPEVTCVVVDVSHEDPEVKFNWYVDGVEVHNAKTKPREEQYNSTYRVVSVLTVLHQDWLNGKEYKCKVSNKALPAPIEKTISKAKGQPREPQVYTLPPSREEMTKNQVSLSCAVKGFYPSDIAVEWESNGQPENNYKTTPPVLDSDGSFFLVSKLTVDKSRWQQGNVFSCSVMHEALHNHYTQKSLSLSPGGGGGSGGGGSGGGGSGGGGSDIQMTQSPSSLSASVGDRVTITCRASQDIRSNLNWYQQKPGGAVKLLIYYTSRLHSGVPSRFSGSGSGTDYTLTISSLQPEDFATYFCQQSEKLPRTFGGGTKVEIR chain 3: not shown | – | 1.56 µg/mL
